Measured values as given in patent US20140073556A1 (published 2014).

Target: T1, recombinant protein comprising the whole extracellular part of IL1RI (UniProt P14778 18-336)
T1 chain: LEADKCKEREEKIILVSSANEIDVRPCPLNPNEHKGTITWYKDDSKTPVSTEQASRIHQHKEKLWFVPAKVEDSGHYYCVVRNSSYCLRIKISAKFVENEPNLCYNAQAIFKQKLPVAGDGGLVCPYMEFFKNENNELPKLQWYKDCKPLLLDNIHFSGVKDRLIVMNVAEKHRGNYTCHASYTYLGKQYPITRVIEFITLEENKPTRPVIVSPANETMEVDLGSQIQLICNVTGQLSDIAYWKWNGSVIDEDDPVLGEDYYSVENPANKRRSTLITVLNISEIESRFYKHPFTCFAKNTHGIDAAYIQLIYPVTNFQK
Test: SPR

Kd: 171 nM
B1: Ilantafin peptide (SEQ ID NO:1), SGRKSSKMQA (peptide)
peptide: SGRKSSKMQA
